B1: Azoarcus group I ribozyme (parent)
chain: GUGCCUUGCGCCGGGAAACCACGCAAGGGAUGGUGUCAAAUUCGGCGAAACCUAAGCGCCCGCCCGGGCGUAUGGCAACGCCGAGCCAAGCUUCGGCGCCUGCGCCGAUGAAGGUGUAGAGACUAGACGGCACCCACCUAAGGCAAACGCUAUGGUGAAGGCAUAGUCCAGGGAGUGGCGAAAGUCACACAAACCGG

Variants of: B1
Experiment: reverse-splicing fitness (ratio to wild type); higher = more active; in vitro selection; Mg2+ level not given
In short: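 An in vitro group I ribozyme library with randomized positions was T7-transcribed and gel-purified. In triplicate, 10 pmol RNA in EPPS pH 7.5 was reacted with 50 pmoles of a 30-nt RNA substrate for 1 h at 37 °C across several added MgCl2 levels (1–48 mM), then stopped with EDTA. Products were reverse transcribed from a substrate-complementary primer, PCR-amplified and sequenced (HiSeq 4000). Fitness is a variant's read proportion after selection over that before, normalised to wild type.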

Question: With C82G A111U A120G A145C C150U U176G as the variant, how does the reverse-splicing fitness read?
Answer: 0.00601

Question: Which reverse-splicing fitness does the source give for C82G A111U A120G A145C C150U U176C here?
Answer: 0.012

Question: With C82G A111U A120G A145C C150U U176A as the variant, how does the reverse-splicing fitness read?
Answer: 0.00941

Question: With C82G A111U A120G A145C C169U U176A as the variant, how does the reverse-splicing fitness read?
Answer: 0.0203

Question: Which reverse-splicing fitness does the source give for C82G A111U A120C A145U C150G C169G here?
Answer: 0.00772

Question: Which reverse-splicing fitness does the source give for C82G A111U A120C A145U C150G C169U here?
Answer: 0.00954

Question: With C82G A111U A120C C169A U176A as the variant, how does the reverse-splicing fitness read?
Answer: 0.0193

Question: Which reverse-splicing fitness does the source give for C82G A111U A120C C169A U176G here?
Answer: 0.00684

Question: For C82G A111U A120C C169A U176C, which reverse-splicing fitness is on record?
Answer: 0.0224

Question: With C82G A111U A120C A145U C150U C169G U176G as the variant, how does the reverse-splicing fitness read?
Answer: 0.00568

Question: Which reverse-splicing fitness does the source give for C82G A111U A120C A145U C150U C169G U176C here?
Answer: 0.0194

Question: For C82G A111U A120C A145U C150U C169G U176A, which reverse-splicing fitness is on record?
Answer: 0.016

Question: With C82G A111U A120G A145C C150G C169U as the variant, how does the reverse-splicing fitness read?
Answer: 0.0084

Question: With C82G A111U A120G A145C C150G C169G as the variant, how does the reverse-splicing fitness read?
Answer: 0.00796

Question: With C82G A111U A120G A145C C150G C169A as the variant, how does the reverse-splicing fitness read?
Answer: 0.00877

Question: Which reverse-splicing fitness does the source give for C82G A111U A120G A145C C169A U176G here?
Answer: 0.00399

Question: Which reverse-splicing fitness does the source give for C82G A111U A120G A145C C169A U176C here?
Answer: 0.00976

Question: For C82G A111U A120G A145C C169A U176A, which reverse-splicing fitness is on record?
Answer: 0.0152

Question: Which reverse-splicing fitness does the source give for C82G A111U A120C A145U C150U C169U here?
Answer: 0.0129

Question: For C82G A111U A120C A145U C150U C169A, which reverse-splicing fitness is on record?
Answer: 0.0102

Question: With C82G A111U A120C A145U C150U C169G as the variant, how does the reverse-splicing fitness read?
Answer: 0.00939

Question: Which reverse-splicing fitness does the source give for C82G A111U A120C C150U U176A here?
Answer: 0.0133

Question: Which reverse-splicing fitness does the source give for C82G A111U A120C C150U U176C here?
Answer: 0.0248

Question: Which reverse-splicing fitness does the source give for C82G A111U A120C C150U U176G here?
Answer: 0.00892

Question: For C82G A111U A120C A145U C169U U176G, which reverse-splicing fitness is on record?
Answer: 0.00499

Question: With C82G A111U A120C A145U C169U U176C as the variant, how does the reverse-splicing fitness read?
Answer: 0.0158

Question: With C82G A111U A120C A145U C169U U176A as the variant, how does the reverse-splicing fitness read?
Answer: 0.0149

Question: Which reverse-splicing fitness does the source give for C82G A111U A120C A145U C169A U176G here?
Answer: 0.00591

Question: For C82G A111U A120C A145U C169A U176C, which reverse-splicing fitness is on record?
Answer: 0.0142

Question: With C82G A111U A120C A145U C169A U176A as the variant, how does the reverse-splicing fitness read?
Answer: 0.015

Question: For C82G A111U A120C U176A, which reverse-splicing fitness is on record?
Answer: 0.0172

Question: With C82G A111U A120C U176G as the variant, how does the reverse-splicing fitness read?
Answer: 0.00814

Question: Which reverse-splicing fitness does the source give for C82G A111U A120C U176C here?
Answer: 0.0303

Question: Which reverse-splicing fitness does the source give for C82G A111U A120G A145C C150G U176C here?
Answer: 0.0105

Question: Which reverse-splicing fitness does the source give for C82G A111U A120G A145C C150G U176A here?
Answer: 0.0058

Question: With C82G A111U A120G A145C C150G U176G as the variant, how does the reverse-splicing fitness read?
Answer: 0.00342

Question: Which reverse-splicing fitness does the source give for C82G A111U A120C A145U C150U C169U U176C here?
Answer: 0.0137

Question: With C82G A111U A120C A145U C150U C169U U176A as the variant, how does the reverse-splicing fitness read?
Answer: 0.0134

Question: For C82G A111U A120C A145U C150U C169U U176G, which reverse-splicing fitness is on record?
Answer: 0.00575

Question: With C82G A111U A120G A145C C150G C169A U176G as the variant, how does the reverse-splicing fitness read?
Answer: 0.00582

Question: For C82G A111U A120G A145C C150G C169A U176A, which reverse-splicing fitness is on record?
Answer: 0.00745

Question: Which reverse-splicing fitness does the source give for C82G A111U A120G A145C C150G C169A U176C here?
Answer: 0.0077

Question: Which reverse-splicing fitness does the source give for C82G A111U A120C A145U C150G C169A U176C here?
Answer: 0.0107

Question: Which reverse-splicing fitness does the source give for C82G A111U A120C A145U C150G C169A U176G here?
Answer: 0.00704

Question: Which reverse-splicing fitness does the source give for C82G A111U A120C C169U U176G here?
Answer: 0.00561

Question: Which reverse-splicing fitness does the source give for C82G A111U A120C C169U U176A here?
Answer: 0.0163

Question: For C82G A111U A120C C169U U176C, which reverse-splicing fitness is on record?
Answer: 0.0166

Question: Which reverse-splicing fitness does the source give for C82G A111U A120G A145C C169G U176C here?
Answer: 0.0172

Question: Which reverse-splicing fitness does the source give for C82G A111U A120G A145C C169G U176A here?
Answer: 0.0245

Question: For C82G A111U A120G A145C C169G U176G, which reverse-splicing fitness is on record?
Answer: 0.00404

Question: With C82G A111U A120C C150G C169G U176A as the variant, how does the reverse-splicing fitness read?
Answer: 0.00766

Question: Which reverse-splicing fitness does the source give for C82G A111U A120C C150G C169G U176C here?
Answer: 0.00622

Question: Which reverse-splicing fitness does the source give for C82G A111U A120C C150G C169G U176G here?
Answer: 0.00747

Question: Which reverse-splicing fitness does the source give for C82G A111U A120C C150A here?
Answer: 0.0117

Question: For C82G A111U A120C C150U, which reverse-splicing fitness is on record?
Answer: 0.0329

Question: With C82G A111U A120C C150G as the variant, how does the reverse-splicing fitness read?
Answer: 0.00875

Question: For C82G A111U A120C C150G C169U U176C, which reverse-splicing fitness is on record?
Answer: 0.013

Question: For C82G A111U A120C C150G C169U U176A, which reverse-splicing fitness is on record?
Answer: 0.00756

Question: With C82G A111U A120C C150G C169U U176G as the variant, how does the reverse-splicing fitness read?
Answer: 0.00705

Question: For C82G A111U A120G A145C C150A C169U U176A, which reverse-splicing fitness is on record?
Answer: 0.0211

Question: For C82G A111U A120G A145C C150A C169U U176G, which reverse-splicing fitness is on record?
Answer: 0.00529

Question: Which reverse-splicing fitness does the source give for C82G A111U A120G A145C C150A C169U U176C here?
Answer: 0.0103

Question: Which reverse-splicing fitness does the source give for C82G A111U A120C C150A C169A here?
Answer: 0.0127

Question: For C82G A111U A120C C150A C169U, which reverse-splicing fitness is on record?
Answer: 0.0114

Question: With C82G A111U A120C C150A C169G as the variant, how does the reverse-splicing fitness read?
Answer: 0.00894

Question: With C82G A111U A120C A145U C150U as the variant, how does the reverse-splicing fitness read?
Answer: 0.0337

Question: With C82G A111U A120C A145U U176C as the variant, how does the reverse-splicing fitness read?
Answer: 0.0279

Question: With C82G A111U A120C A145U U176A as the variant, how does the reverse-splicing fitness read?
Answer: 0.0204

Question: Which reverse-splicing fitness does the source give for C82G A111U A120C A145U U176G here?
Answer: 0.00709

Question: With C82G A111U A120C A145U C169G U176C as the variant, how does the reverse-splicing fitness read?
Answer: 0.0213

Question: Which reverse-splicing fitness does the source give for C82G A111U A120C A145U C169G U176G here?
Answer: 0.00535

Question: For C82G A111U A120C A145U C169G U176A, which reverse-splicing fitness is on record?
Answer: 0.0154

Question: Which reverse-splicing fitness does the source give for C82G A111U A120G A145C C150A here?
Answer: 0.00696

Question: For C82G A111U A120G A145C C150U, which reverse-splicing fitness is on record?
Answer: 0.00849

Question: For C82G A111U A120G A145C C150G, which reverse-splicing fitness is on record?
Answer: 0.00659

Question: With C82G A111U A120G A145C C150U C169G U176C as the variant, how does the reverse-splicing fitness read?
Answer: 0.0136

Question: Which reverse-splicing fitness does the source give for C82G A111U A120G A145C C150U C169G U176A here?
Answer: 0.023

Question: With C82G A111U A120G A145C C150U C169G U176G as the variant, how does the reverse-splicing fitness read?
Answer: 0.00518

Question: With C82G A111U A120C A145U C169G as the variant, how does the reverse-splicing fitness read?
Answer: 0.00981

Question: For C82G A111U A120C A145U C169U, which reverse-splicing fitness is on record?
Answer: 0.0143

Question: Which reverse-splicing fitness does the source give for C82G A111U A120C A145U C169A here?
Answer: 0.00897

Question: Which reverse-splicing fitness does the source give for C82G A111U A120G A145C C150A C169G U176A here?
Answer: 0.0229

Question: With C82G A111U A120G A145C C150A C169G U176G as the variant, how does the reverse-splicing fitness read?
Answer: 0.00516

Question: With C82G A111U A120G A145C C150A C169G U176C as the variant, how does the reverse-splicing fitness read?
Answer: 0.0144
